Consider 10 molecules from article PMC2800207.

Some targets named below: NusB (Escherichia coli, UniProt P0A780 1-139); NusB D118N (NusB101) (Escherichia coli, UniProt P0A780 1-139, D118N); NusB K2E (Escherichia coli, UniProt P0A780 1-139, K2E); NusB D118K (Escherichia coli, UniProt P0A780 1-139, D118K); NusB D118A (Escherichia coli, UniProt P0A780 1-139, D118A); NusB D118R (Escherichia coli, UniProt P0A780 1-139, D118R).
Experiment in all cases: fluorescence anisotropy
(Polarisation of emitted light reports the rotation of a fluorescent probe.)

For CGCUCGUACACAUUCCA (ssRNA) [nutR BoxA(U39G)-spacer], the Kd (as a rule, the concentration at which binding is half-saturated) with NusB is 1.6 ± 0.8 µM.

AUAGCGGCCACAUUCCA (ssRNA) [nutR BoxA69-spacer (boxA transversion)]: the binding result with NusB D118N (NusB101) and with NusB was “no binding” in each case.

Turning to CACUGCUCUUUAACAAUUA (ssRNA) [rrnG BoxA-spacer], the Kd worked out at 3.6 µM with NusB K2E, 0.024 ± 0.004 µM with NusB D118N (NusB101) and 0.13 ± 0.02 µM with NusB.

On to CACAUUCCA (ssRNA) [nutR spacer], for which the binding result with NusB D118N (NusB101) and with NusB was “no binding” in each case.

As for CGCUCUUAAAAAUUAA (ssRNA) [nutL BoxA-spacer], the Kd with NusB K2E was determined as 5.1 µM; with NusB it was 2.2 ± 0.8 µM.

AAAAUUAA (ssRNA) [nutL spacer]: the binding result with NusB D118N (NusB101) and in the data set with NusB was “no binding” throughout.

Turning to CGCUCUUA (ssRNA) [nutR BoxA], the dissociation constant Kd with NusB D118N (NusB101) was determined as 0.29 ± 0.015 µM; with NusB, 1.6 ± 0.1 µM.

CGCUAUUACACAUUCCA (ssRNA) [nutR BoxA16-spacer (C38A)] displayed a Kd in the data set with NusB of 5.1 ± 1.4 µM.

With UGCUCUUUA (ssRNA) [rrnG BoxA], the Kd with NusB D118N (NusB101) worked out at 0.05 ± 0.015 µM; with NusB, 0.2 ± 0.01 µM.

For the molecule CGCUCUUACACAUUCCA (ssRNA) [nutR BoxA-spacer], the binding result in the data set with NusB D118K, in the data set with NusB D118A and in the data set with NusB D118R was “no binding” in each case.
